± gives the standard deviation of the averaged measurements.
B1: library; a variant is named by its letters at N, in order (parent)
chain: AATGTTGTTGATGCAACCATAAAGTGATATTTAATAATTATTTATAATCAGCAACTTAACCACAAAACAACCATATATTGATATNTCACAAAACAACCATAANTTGATATTTTTGTGAATCGAGTATTTCAGCAAAACTACTGCAGTAAGAA

Legend:
[1] = variants of: B1; experiment: relative integration efficiency (T-LR orientation) vs wild-type transposon end (log2 (normalized fold change)); transposon end mutated: left end; higher = more efficient transposition; settings: with VchCAST RNA-guided transposition machinery (E. coli BL21(DE3) host, lacZ target)
How it was run: (§1)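 Co-transformation of E. coli BL21(DE3) combined a pUC57 mini-transposon donor, holding barcoded pools of 1549 left-end or 1849 right-end variants, with a T7-driven plasmid encoding a CRISPR array, tniQ-cas8-cas7-cas6 and tnsA-tnsB-tnsC. After plating with 0.1 mM IPTG at 37°C for 18 h, input plasmids and genomic integration junctions were PCR-amplified and Illumina-sequenced across two biological output replicates, with four reference barcodes. Relative integration efficiency is the normalised, log-transformed output/input barcode fold change.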

[2] = variants of: B1; experiment: relative integration efficiency (T-RL orientation) vs wild-type transposon end (log2 (normalized fold change)); transposon end mutated: left end; higher = more efficient transposition; settings: with VchCAST RNA-guided transposition machinery (E. coli BL21(DE3) host, lacZ target)
How it was run: as §1

## CG T5A T6A
[1]
  relative integration efficiency (log2): < -10
[2]
  relative integration efficiency (log2): -6.46 ± 0.12

## CG C18G A19T T20A A21T
[1]
  relative integration efficiency (log2): -2.57 ± 1.4
[2]
  relative integration efficiency (log2): -1.37 ± 0.56

## TA A70C T76A T86G A102T T111C T113C
[1]
  relative integration efficiency (log2): -0.561 ± 0.29
[2]
  relative integration efficiency (log2): -0.418 ± 0.19

## CG T20G A21C A22C A23C
[1]
  relative integration efficiency (log2): -2.4 ± 0.83
[2]
  relative integration efficiency (log2): -3.18 ± 0.88

## CG A46C
[1]
  relative integration efficiency (log2): -0.118 ± 0.76
[2]
  relative integration efficiency (log2): -0.291 ± 0.11

## CG A46G
[1]
  relative integration efficiency (log2): -0.0959 ± 0.59
[2]
  relative integration efficiency (log2): -0.0807 ± 0.18

## CG T79A G80C
[1]
  relative integration efficiency (log2): -1.35 ± 1.1
[2]
  relative integration efficiency (log2): -1.89 ± 0.83

## CG A54T
[1]
  relative integration efficiency (log2): 0.264 ± 0.087
[2]
  relative integration efficiency (log2): 0.224 ± 0.12

## CG A107C
[1]
  relative integration efficiency (log2): -0.569 ± 1.1
[2]
  relative integration efficiency (log2): -0.425 ± 0.35

## CG A107G
[1]
  relative integration efficiency (log2): -0.592 ± 0.8
[2]
  relative integration efficiency (log2): -0.554 ± 0.26

## TG A23G G24T A33T A70C T76A T84A C87A
[1]
  relative integration efficiency (log2): 0.473 ± 0.22
[2]
  relative integration efficiency (log2): 0.022 ± 0.35

## CG G51C
[1]
  relative integration efficiency (log2): -0.456 ± 0.66
[2]
  relative integration efficiency (log2): -0.42 ± 0.19

## CG T42A T43A
[1]
  relative integration efficiency (log2): 0.176 ± 0.54
[2]
  relative integration efficiency (log2): -0.0273 ± 0.049

## CG A77C T78G T79G G80T
[1]
  relative integration efficiency (log2): -2.28 ± 1.1
[2]
  relative integration efficiency (log2): -1.57 ± 0.49

## CG C71A C72A A73C T74G
[1]
  relative integration efficiency (log2): -2.28 ± 1.8
[2]
  relative integration efficiency (log2): -2.51 ± 1

## AG T86G
[1]
  relative integration efficiency (log2): 0.305 ± 0.13
[2]
  relative integration efficiency (log2): -0.271 ± 0.068

## TA T76A T78A T84A C87A A96C T112G T113C
[1]
  relative integration efficiency (log2): -0.207 ± 0.74
[2]
  relative integration efficiency (log2): 0.00846 ± 0.17

## CG A15T A16T C17G C18G
[1]
  relative integration efficiency (log2): -0.912 ± 0.078
[2]
  relative integration efficiency (log2): -0.824 ± 0.58

## CG T108G A109C T110G T111G
[1]
  relative integration efficiency (log2): -2.71 ± 1.1
[2]
  relative integration efficiency (log2): -1.63 ± 0.69

## CT A102C
[1]
  relative integration efficiency (log2): -1.29 ± 0.9
[2]
  relative integration efficiency (log2): -0.973 ± 0.41

## CG G26T A27C
[1]
  relative integration efficiency (log2): -0.945 ± 0.26
[2]
  relative integration efficiency (log2): -1.68 ± 0.7

## CG C72A
[1]
  relative integration efficiency (log2): -0.613 ± 1
[2]
  relative integration efficiency (log2): -0.492 ± 0.48

## CG A36T A37T
[1]
  relative integration efficiency (log2): 0.375 ± 0.21
[2]
  relative integration efficiency (log2): 0.0996 ± 0.091

## CG T38A
[1]
  relative integration efficiency (log2): 0.0433 ± 0.41
[2]
  relative integration efficiency (log2): -0.123 ± 0.054

## TA G24A T30A T76A A77G C87T T104G T113A
[1]
  relative integration efficiency (log2): 0.395 ± 0.079
[2]
  relative integration efficiency (log2): -0.232 ± 0.36

## CG A95T
[1]
  relative integration efficiency (log2): -0.598 ± 0.89
[2]
  relative integration efficiency (log2): -0.00814 ± 0.24

## CG A95C
[1]
  relative integration efficiency (log2): -0.179 ± 0.35
[2]
  relative integration efficiency (log2): -0.318 ± 0.063

## CG A95G
[1]
  relative integration efficiency (log2): -1.23 ± 0.42
[2]
  relative integration efficiency (log2): -0.845 ± 0.39

## TG G24A T30A T76A T78G C87A
[1]
  relative integration efficiency (log2): 0.0926 ± 0.5
[2]
  relative integration efficiency (log2): 0.0283 ± 0.13

## CG C72G A73T
[1]
  relative integration efficiency (log2): -1.6 ± 1.4
[2]
  relative integration efficiency (log2): -1.44 ± 0.73

## CG A59T C60G
[1]
  relative integration efficiency (log2): 0.263 ± 0.38
[2]
  relative integration efficiency (log2): -0.145 ± 0.073

## CG T12G G13T
[1]
  relative integration efficiency (log2): -0.641 ± 0.4
[2]
  relative integration efficiency (log2): -0.29 ± 0.15

## TA A23G G24T A33T A70C T76A T84A C87A A102T T111C T113C
[1]
  relative integration efficiency (log2): -0.166 ± 0.29
[2]
  relative integration efficiency (log2): 0.133 ± 0.28

## CG A53C A54C
[1]
  relative integration efficiency (log2): 0.297 ± 0.47
[2]
  relative integration efficiency (log2): 0.0858 ± 0.13

## CG T39G
[1]
  relative integration efficiency (log2): 0.304 ± 0.45
[2]
  relative integration efficiency (log2): 0.00997 ± 0.055

## CG T112A T113A
[1]
  relative integration efficiency (log2): -0.503 ± 0.53
[2]
  relative integration efficiency (log2): -0.318 ± 0.2

## CG G115T
[1]
  relative integration efficiency (log2): 0.42 ± 0.24
[2]
  relative integration efficiency (log2): 0.238 ± 0.1

## CG A119C T120G C121A G122T A123C G124T T125G
[1]
  relative integration efficiency (log2): -0.964 ± 0.063
[2]
  relative integration efficiency (log2): -0.304 ± 0.022

## CG T25A G26C A27T T28A
[1]
  relative integration efficiency (log2): -2.09 ± 0.86
[2]
  relative integration efficiency (log2): -2.28 ± 0.71

## CG A22T
[1]
  relative integration efficiency (log2): 0.128 ± 0.29
[2]
  relative integration efficiency (log2): 0.0984 ± 0.17

## CG C17A C18A
[1]
  relative integration efficiency (log2): -1.03 ± 1
[2]
  relative integration efficiency (log2): -1.15 ± 0.71

## CG A64T A65T
[1]
  relative integration efficiency (log2): 0.0165 ± 0.48
[2]
  relative integration efficiency (log2): 0.469 ± 0.084

## CG C60G
[1]
  relative integration efficiency (log2): 0.358 ± 0.26
[2]
  relative integration efficiency (log2): -0.0988 ± 0.017

## CG A107C T108G A109C T110G
[1]
  relative integration efficiency (log2): -2.3 ± 1.2
[2]
  relative integration efficiency (log2): -1.64 ± 0.79

## CG T110A T111A
[1]
  relative integration efficiency (log2): -0.344 ± 0.074
[2]
  relative integration efficiency (log2): -0.513 ± 0.22

## CG A40C T41G
[1]
  relative integration efficiency (log2): 0.224 ± 0.022
[2]
  relative integration efficiency (log2): -0.0298 ± 0.00035

## TA A70C T76A T84A C87A T104A T110A T113A
[1]
  relative integration efficiency (log2): 0.319 ± 0.13
[2]
  relative integration efficiency (log2): -0.146 ± 0.28

## CG C89G A90T A91T A92T
[1]
  relative integration efficiency (log2): -0.0713 ± 0.9
[2]
  relative integration efficiency (log2): -0.00767 ± 0.14

## CG T84C
[1]
  relative integration efficiency (log2): -0.172 ± 0.0094
[2]
  relative integration efficiency (log2): -0.158 ± 0.056

## CC
[1]
  relative integration efficiency (log2): 0.321 ± 0.75
[2]
  relative integration efficiency (log2): -0.0693 ± 0.024

## CG T39G A40C T41G T42G
[1]
  relative integration efficiency (log2): 0.3517 ± 0.00068
[2]
  relative integration efficiency (log2): 0.179 ± 0.11

## CG T41A T42A T43A A44T
[1]
  relative integration efficiency (log2): 0.249 ± 0.14
[2]
  relative integration efficiency (log2): 0.195 ± 0.17

## CG A21T A75T A101T
[1]
  relative integration efficiency (log2): -1.38 ± 0.99
[2]
  relative integration efficiency (log2): -1.31 ± 0.37

## TA A16C G24T T30A A70C T76A T86G A96C T112G T113C
[1]
  relative integration efficiency (log2): -0.394 ± 0.73
[2]
  relative integration efficiency (log2): -0.421 ± 0.27

## CG A107T T108A A109T T110A
[1]
  relative integration efficiency (log2): -0.765 ± 0.3
[2]
  relative integration efficiency (log2): -0.783 ± 0.46

## CG A67C
[1]
  relative integration efficiency (log2): -0.106 ± 0.44
[2]
  relative integration efficiency (log2): -0.129 ± 0.051

## CG A67G
[1]
  relative integration efficiency (log2): -0.325 ± 0.26
[2]
  relative integration efficiency (log2): -0.269 ± 0.083

## CG C49A A50C G51T C52A
[1]
  relative integration efficiency (log2): -1.02 ± 1.1
[2]
  relative integration efficiency (log2): -0.71 ± 0.6
